In article PMC6416349:

Assays:
Test in all cases: SPR; Biacore 3000, 25 °C; fungal protein immobilised on a CM5 chip by amine coupling (300 RU Eno1 and Mp65, 360 RU Als3); RgpA 10-100 nM injected at 20 µl/min; 10 mM HEPES, 150 mM NaCl, 0.005% surfactant, pH 7.4; global fit, 1:1 Langmuir model with baseline drift
[1] = target: C. albicans enolase 1 (Eno1) (C. albicans) (UniProt P30575)
[2] = target: C. albicans agglutinin-like sequence protein 3 (Als3), isolated from the hyphal cell wall (C. albicans) (UniProt Q59L12)
Chain of UniProt Q59L12 (Q59L12 18-1134): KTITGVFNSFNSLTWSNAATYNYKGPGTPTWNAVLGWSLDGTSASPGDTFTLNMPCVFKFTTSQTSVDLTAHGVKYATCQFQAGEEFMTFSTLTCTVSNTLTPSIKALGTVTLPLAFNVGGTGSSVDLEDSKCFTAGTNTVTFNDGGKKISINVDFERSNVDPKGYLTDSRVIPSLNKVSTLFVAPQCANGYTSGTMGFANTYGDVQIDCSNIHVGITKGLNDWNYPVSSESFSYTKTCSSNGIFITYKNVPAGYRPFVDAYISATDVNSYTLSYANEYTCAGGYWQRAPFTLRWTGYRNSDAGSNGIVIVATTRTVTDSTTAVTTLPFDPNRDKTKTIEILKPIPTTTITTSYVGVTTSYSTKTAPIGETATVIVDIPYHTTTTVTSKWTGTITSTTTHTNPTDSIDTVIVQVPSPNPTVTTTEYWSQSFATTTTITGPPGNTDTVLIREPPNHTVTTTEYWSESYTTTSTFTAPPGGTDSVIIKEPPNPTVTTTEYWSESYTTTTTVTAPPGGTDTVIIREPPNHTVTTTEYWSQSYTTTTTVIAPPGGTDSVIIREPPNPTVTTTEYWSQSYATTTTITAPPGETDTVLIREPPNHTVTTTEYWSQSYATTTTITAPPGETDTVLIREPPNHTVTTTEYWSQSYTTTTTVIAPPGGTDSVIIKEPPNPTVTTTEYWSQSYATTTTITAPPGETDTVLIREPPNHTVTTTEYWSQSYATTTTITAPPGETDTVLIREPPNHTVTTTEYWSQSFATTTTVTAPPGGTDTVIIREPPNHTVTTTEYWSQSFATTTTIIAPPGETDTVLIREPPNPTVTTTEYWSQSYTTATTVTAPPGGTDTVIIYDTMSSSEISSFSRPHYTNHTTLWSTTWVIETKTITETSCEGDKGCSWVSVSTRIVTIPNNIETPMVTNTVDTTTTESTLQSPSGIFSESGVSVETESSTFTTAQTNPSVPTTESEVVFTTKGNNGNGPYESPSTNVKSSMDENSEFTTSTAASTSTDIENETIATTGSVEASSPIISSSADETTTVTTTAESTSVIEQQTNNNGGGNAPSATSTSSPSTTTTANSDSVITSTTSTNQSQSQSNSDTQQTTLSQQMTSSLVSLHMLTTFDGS

[3] = target: C. albicans cell wall mannoprotein 65 (Mp65) (C. albicans) (UniProt Q59XX2)
Chain of UniProt Q59XX2 (Q59XX2 33-378): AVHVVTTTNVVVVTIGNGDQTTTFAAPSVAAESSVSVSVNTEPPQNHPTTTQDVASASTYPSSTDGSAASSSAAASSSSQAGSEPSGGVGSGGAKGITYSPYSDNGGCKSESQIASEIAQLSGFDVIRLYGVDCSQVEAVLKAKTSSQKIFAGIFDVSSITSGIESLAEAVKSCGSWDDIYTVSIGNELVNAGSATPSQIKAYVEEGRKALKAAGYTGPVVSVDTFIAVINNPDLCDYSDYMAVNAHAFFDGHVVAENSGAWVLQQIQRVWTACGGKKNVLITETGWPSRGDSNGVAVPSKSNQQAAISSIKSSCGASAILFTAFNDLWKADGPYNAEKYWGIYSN

Chain of UniProt P30575 (P30575 whole entry): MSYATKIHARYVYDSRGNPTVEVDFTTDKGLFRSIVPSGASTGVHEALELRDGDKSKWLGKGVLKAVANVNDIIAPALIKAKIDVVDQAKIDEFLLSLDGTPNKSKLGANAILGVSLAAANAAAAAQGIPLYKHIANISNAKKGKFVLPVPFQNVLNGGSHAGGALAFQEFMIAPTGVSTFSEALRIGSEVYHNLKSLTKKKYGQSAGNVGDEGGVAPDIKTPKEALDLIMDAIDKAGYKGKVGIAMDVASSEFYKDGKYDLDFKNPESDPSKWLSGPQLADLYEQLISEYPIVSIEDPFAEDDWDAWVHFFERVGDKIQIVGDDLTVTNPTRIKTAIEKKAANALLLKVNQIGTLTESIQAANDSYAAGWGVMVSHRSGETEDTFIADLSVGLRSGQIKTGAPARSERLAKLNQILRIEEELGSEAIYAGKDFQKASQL

“P. gingivalis gingipain RgpA (HRgpA) (from UniProt P28784 228-991) (enzyme)” was tested, and the Kd [1] was 2.97 nM, the Kd [2] was 9.96 nM and the Kd [3] was 9.44 nM.
